Ksv (Stern-Volmer constant, static quenching) (not printed (uM^-1 inferred)) data for one substance are collected here from paper PMC8623809.

For assay [1], the target named is bovine submaxillary mucin (BSM), Sigma Type I-S. The assay is described as follows: Intrinsic tryptophan fluorescence quenching (excitation 280 nm, emission maximum 326 nm), Stern-Volmer analysis. The conditions noted are these: 100 mM PBS (composition not further stated), 100 mM PBS adjusted with HCl to pH 7, 5 and 3 (same buffer at all pH values).
Assay [2] has as its target porcine gastric mucin (PGM), Sigma Type III. The assay is described as above. The conditions noted are these: 100 mM PBS (composition not further stated), 100 mM PBS adjusted with HCl to pH 7, 5 and 3 (same buffer at all pH values).

Turning to beta-lactoglobulin (BLG), the Ksv (Stern-Volmer constant, static quenching) (not printed (uM^-1 inferred)) was found to be 0.19 in assay [1] (pH 3); 0.15 in assay [1] (pH 5); 0.23 in assay [1] (pH 7); 1.25 in assay [2] (pH 3); 0.92 in assay [2] (pH 5); 1.08 in assay [2] (pH 7).
